Reference: the nanobody polyreactivity screen of Harvey et al. (2022)

Assay: yeast display, Sf9 membrane polyspecificity reagent, FACS + sequencing; frameworks hold sequencing errors
Method in brief: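 A nanobody's polyreactivity label depends on the gate it was sorted from. Yeast display cells were stained with 10% biotinylated, detergent-solubilized Sf9 membrane reagent for 1 hour at 4 °C, enriched on streptavidin microbeads and sorted by FACS. The low and high (top ~1%) gates were set on anti-HA fluorescence for expression and streptavidin fluorescence for reagent binding.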

Sequence | polyreactivity (PSR sort gate)
QVQLVESGGCLVQAGGSLRLSCAASGRIFVPNAMGWYRQAPGKERELVAAINWGGGSTYYADSVKGRFTISRDNAKNTVYLQMNSLKPEDTAVYYCAADHPYTMGVLPNQQFDYWGQGTQVTVSS | low polyreactivity
QVQLVESGGGLVQAGGSLRLSCAASGRIFVGNTMGWYRQAPGKERELVAAISWRGRTSYADSVKGRFTISRDNAKNTVYLQMNSLKPEDTAVYYCNAEHAGATRYYYIANWMDYWGQGTQVTVSS | low polyreactivity
QVQLVESAGGLVQAGASRRLSCAASGRTVSLYTMGWSRQSPGKESELVASITSSGSTSYADSVKGRFTISRDNAKNTVYLQMNSLKPEDTAVYYCNAAVSYPKYPYVSPGVPSYDYWGQGTQVTVSS | low polyreactivity
QVQLVESGGGLVQAGGSLRLSCAASGSISIVYTMGWYRQAPGKERELVATISWSGGNTYYADSVKGRFTISRDYAKNTVYLQMNSLKPEDTAVYYCAARWYYYPLLYDYWGQGTQVTVSS | low polyreactivity
QVQLVESGGGLVQAGGSLRLSCAASGIIFRDYGMGWSRQAPGKEREFVATITYSGGGTYYADSVKGRFTISRDKAKNTVYLQMNSLKPEDTAVYYCAAYPFYYDLAYDYWGQGTQVTVSS | low polyreactivity
QVQLVESGGGLVQAGGSLRLSCDASGSTFYLYKGWYRQAPGKERELVAAITSGGRTYYADSVKGRFTISRDNAKNSVYLQMNSLKPVVSAVYYCARPYSRAYDYWGEGTQVTVSS | high polyreactivity
QVQLVESGGGLVQAGGSLRLSCAASGFIFLYNTMGWYRQAPGKERELVAAISGGGGSTSYADSVKGRFTISRDNAKNTVYLQMNSLKPEDTAVYYCAKKSTYYKWSRMYWGQGTQVTVSS | high polyreactivity
QVQLVESGGGLVQAGGSLRLSCAASGSIISNYVMGWYRQAPGKERELDAAITRRGGRTYYADSVKGRFTISRDNAKNTVYLQMNSLKPEDTAVYYCAAEGYVYTFWDSTDFDYWGQGTQVTVSS | high polyreactivity
QVQLQESGGGLVKAGGSLRLSCAASGNISPRDAMGWYRQAPGEERDLVASNAYSAITYYADGVKGRYTISRDNAKNTVYLQMNSLKPEDTVVYYCAVYQFTYPVFPAYWGQGTQVTVSS | low polyreactivity
QVQLVESGGGILQARGSRPLICAASGSNLSYNAMGWYRQAPGKEREFVATITGTGGSTRYADSVKGRFTFSRDNAKNTVYLQMNSLNPEDTAVYYCATAAWWYYRIYHEFGFLGQGTQVTVSS | high polyreactivity
QVQLVESGGGLVQAGGSLRLTCAATGIIFSYYAKGWYRQAPGKERELVAAISWGGGSTFYADSVKGRFTISRDNAKKTVSLQMKSLKPEDNAVLFCDADYGGDFGMDYCGQGTQVTVSS | low polyreactivity
QVQLVESGGGLVQAGGSLRLSCAASGITFYRYVMGWYRQAPGKERELVAAITTGDSTYYADSVKGRFTISRDNAKNTVYLLMNSLKPEDTAVYYCAAVYYSALANYDYWGQGTQVTVSS | low polyreactivity
QVQLVESGGGLVQAGGSLRLSCAASGSIFGYNAMGWYRQAPGKERELVAAIRRSGSSTYYADSVKGRFTISRDNAKNTVYLQMNSLKPEDTAVYYCNRVPRPVADQEYDYWGQGTQVTVSS | low polyreactivity
QVQLVESGGGLVQAGGSLRLSCAPSGSTFYKNAMGWYRQAPWKERELVAGISRRGGRTYYADSVKGRFSISRDNAKNTVYLQMNSLKPEDTAVYYCNARLLSGPGYDYWGQGTQVTVSS | low polyreactivity
QVQLVESGGGLVQAGGSLRLSCAASGRIIGLYALGWYRQATGKERELVAAISSAGSTYYADSVKGRFTISRDNAKNTVYLQMNSLKPEDTAVYYCAKSRYRGYDYWGQGTQVTVSS | low polyreactivity
QVQLVESGGGLVQAGGSLRLSCAASGRTFGPYAMGWYRQAPGKERELVAAISRSGGRTYYADSVKGRFSISRDNAKNTVYLQMNSLKPEETAVYYCNALYLSTRSGDYWGQGSQVTVSS | high polyreactivity
QVQLVESGGGLVQAGGSLRLSCAASGFTFWLYAMGWYRQAPGKERELVAAIDWDCGTYYADSVKGRFTISRDNAKNTVYLQMNSLKPEDTAVYYCAARYRYYYTRYDYWGQGTQVTVSS | high polyreactivity
QVQLVESGGGLVQAGGSLRLSCAASGFIFSHYAMGWYRQAPGKERELVAAISRNGGSTYYADSVKGRFTISRDNAKNTVYLQMNSLKPEDTAVYYCAVDVSEWYHYDLYYWYYYWGQGTQVTVSS | high polyreactivity
QVQLVESGGGLVQAGGSLRLSCAASGRIFVPYVMGWYRQAPGKERELVASISDSDTSTYYADSVKGRFTISRDNAKNTVYIQMNSLKPEDSAVYYCNVDYWGQGTQVTVSS | low polyreactivity
QVQLVESGGGLVQAGGSLRISCAASGSTFTINVMGWYTQAPGKERELVAAINGGGRTNYADSVKGRFTISRDNAKNTVYLQMNSLIPEDSAVYYCAADGLSIVRQMDYWGLGTQVTVSS | low polyreactivity
QVQHVDSGGGLVQAGGSLRLSCAASGRILYSYAMGWYRQAPGKERELVAVITTRGGTYYADSVKGRFTISRDNAKNTVYLQMNSLKPEDTAVYYCNARRYPSYKYDYWGQGTQVTVSS | high polyreactivity
QVQLVESGGGLVQAGGSLRLSCAASGFIFGRYTMGWYRQAPGKERELVAAITYSGNTYYADSVKGRFTISRDNAKNTVYLQMNSLKPEDTAVYYCNAYGANFRAFRNAYKYWGQGTQVTVSS | high polyreactivity

Sequence | polyreactivity (PSR sort gate)
QVQLVESGGGLVQAGGSLRLSCAASGRIFYGYAMGWYRQAPGKERDLVAGISYRGARTYYADSVKGRFTISRDNAKNTVYLQMTSLKPEDTAVYYCNAVPYYPFAFGALDYWGQGTQVTVSS | high polyreactivity
QVQLVESGGGLVQAGGSLRLSCAASGRTFFSYTMGWYRQAPGKERELVAAISDSDGRTYYADSVKGRFTISRDNAKNTVYLQMNSLKPEDTAVYYCAAVPDKYWSRVRRYLFEHNYWGQGTQVTVSS | low polyreactivity
QVQLVESGGGLVQAGGSLRLSCAASGSTFGYYVMGWSRQAPGKERELVAAISWGGGSTYYADSVKGRFTISRDNAQNTVYLQMNSLNPEDTAVYYCNLRDQWWGYDYWGQGTQVTVSS | low polyreactivity
QVQLVESGGGLVQAGGSLRLSCAASGFTFTWYAMGWYRQAPGKERELVAAISSGGGRTYYADSVKGRFTISRDNAKNTVYLQMNSLKPEDTAVYYCNAVAGGVYVDNGYDYWGQGTQVTVSS | high polyreactivity
QVQLVESGGGLVQAGGSLRLSCAASGFTFRFYGMGWYRQAPGKERELVAAISSRGTTTYYADSVKGRFTISRDNAKNTVYLQMNSLKPEDTAVYYCNKEYTTYGYDLEYDYWGLGTQVTVSS | low polyreactivity
QVQHVESGGGLVQAGASLRLSCAASGFIFPSYVKGWYRQAPWKERDLVATISRSGGSTYYADSVKGRFTISRDNAKNTVYLQMNSLKPEDTAVYYCAAYPYSYLQLMDYWGQGTQVTVSS | high polyreactivity
QVQLVESGGGLVQAGGSLRLSCAASGRTFVPYAMGWYRQAPGKEREFVAAISSRVGSTYYADSVKGRFTISRDNAKNTVYLQRNSLKPEDTAVYYCNAPFKPAGFYSAWKYDYWGQGTQVTVSS | low polyreactivity
QVQLVESGRGLLQAGGSLRLSCAASGSIFYPYVMGWYRQAPGKERELVASISWRGGRTYYADSVKGRFTISRDNAKNTVYLQMNSMKPEDTAVYYCAKRTYDSFYGYYYWGQGTQVTVSS | high polyreactivity
QVQLVESGGGLVQAGGRLRLSCAASGRIFYNYAMGWYRQAPGKERELVASINFSGTRTYYADSVKGRFTISRDYAKNHVYLQMNSLKPEDTAVYYCAARQAHGYYYWGQGTQVTVSS | high polyreactivity
QVQLVESGGGLVQAGGSLRLICAASGSIFVTNGMGWYRQAPGKERELVAAIRWSGDSTYYADSVKGRFTISRDNGKNTVFLLMKSLKPEDTAVYYCAAESFRYIRLNYKYGDYYWGQGTQVTVSS | high polyreactivity
QVQLVESGGGLVQAGGSLRLSCAASGSTFTWNAMGWYRQAPGTERELVAAITSGGRTYYADSVKGRFTISRDNAKNTVYLQMNSLKPEDTAVYYCAAKVRQYYSACNYYYWGQVTQVTVSS | high polyreactivity
QVQLVESGGGLVQAGGSLRLSCAASGRTLHDYTMGWYRQAPGKERELVAGITSGGRTNYADSVKGRFTISRDNAKNTVYLQMNSLKPEDTAVYYCAAAWTWWRLYADDYWGQGTQVTVSS | high polyreactivity
QVQLVESGGGLVQAGGSLRLSCAAYGSTFHYYSMGWYRQAPGKERELVAAISSSGVSTYYADSVKGRFTISRDYAKNTVYLQMNSLKPEDTAVYYCNRASVFHYRWYYYWGLGTQVTVSS | high polyreactivity
QVQLVESGGGLVQAGGSLRLSCAASGIIFATYAMGWYRQAPGKERELVAAISSGGRTYYADSVKGRFTISRDNAKNTVYFQMNSLKPEDTAVYYCAAKSGGRSSLYNYWGQGTQVTVSS | high polyreactivity
QVQLVESGGGLVHAGGSLRLSCADSGRIFYANALGWSRQSPGRERELVAAISSGGSTYYADSVKGRFTSSRDNAKNTVYLQMNSLKPEDTAVYYCAVYTLKKVRPEYDYWGQGTQVTVSS | low polyreactivity
QVQHVESGGGLVQAGVSLRLSCAASGSTFRRYAMGWYRQSRGKERELVATISSRGGSTNYADSVKGRFTISRDNAKNTVYLQMNSLNPEDTSFYYCARSTSLVTKDDYWGQGTQVTVSS | high polyreactivity
QVQLVESGGGLVQAGGSLRLSCAASGNTIIRYAMGWYRQAPGKERELVAAISYSGGRTYYADSVKGRFTISRDNAKNTVYLQMNSLKPEDTAVYYCNAASRYGGDYWGQGTQVTVSS | low polyreactivity
QVQLVESGRGLVQAGGSLRLSCAASGSTRRYVMGWYRQAPGKERELVAVISRGGSTYYADSVKGRFTISRDNAKNSVYLQMNSLKPEDTAVYYCNGQPVIPRGGDYWGQATQVTVSS | high polyreactivity
QVQLVESGGGLVQAGGSLRLSCAASGLIFGRYAMGWYRQAPGKERELVAGISGSGGITYYADSVKGRFTISRDTAKNTVYLQMHILKPEDTAVYYCATAAASHKYGYWGQGTQVTVSS | low polyreactivity
QLQLVESGGGLVQAGGRLRLSCAASGRTLGKYAMGWYRQAPGKEREFVAAISSSGSRTFYADSVKGRFTISRDNAKYTVSLQMNSLKPEDTAVYYCAADYYSRGYGYWGQGTQVTVSS | high polyreactivity
QVQLVESGGRLVQAGGSLRLSCAASGRTLSSYVIGWYRQAPGKERELVAAITQSTSRTYYADSVKGRFTISRDNAKNTVYLQMHSLKPEDTAVYYCAAEGRFGRKYGYWGQGTQVTVSS | low polyreactivity
